According to a protein production outcome set (Wang et al. 2014):

Experiment: label from the status in PepcDB records

Sequence	protein production
MAVPPVEMYSGSFWNRMRKPLPLRTQVIRFTVVFVIVSFILAVALQITHERMPDPKVTKPLPDLGFELLTKVPGMYVLADCCIGFLNILSVFTAFKLYLLHRHCVGSGEPELPCNIPGVSRFFLSVWLCKENCRIELRNIHTIAWIRFITSYALLLLFRSAVIVMTSLPAPDDLCQDPPKIENPVKNVILTVLTAGGGSIHCGDLMYSGHTVILTLHLMFHWIYGAMVHWSFRPVVTVVAIFGYYCIVASRFHYTDDVLVAIYLTIATFIAVGHNADGAPWQLQLFIRWWPCCGANSREVTEDSQPVMVAFKSEELDEMNGVLEGRQKKHGGVGDGESLMFKCGAYVVSHHHHHH	not failed
MMKPSVSAAILAAGTSTRMNEMKQLAKIQGTYMLKYVIDQVSNHPFQHIFVIVGHQADIVMKMIQVEDKRVQWLVNDQYKQGQSTSFKLAMEQARQYGDAVMMFLADQPLIEKETVNIVLNEGITRVQEEPFIVRPMYEKKEGHPVYWGNIHALDCSAVNGDKGGKTLMEELERMLIPVHDQGVLVDVDTCEDYKKVNDLMKRKSPSTHLEHHHHHH	not failed
MDHDKTGCQSPPEGPKLCTNNCGFFGSAATMNMCSKCHKDMLFQQEQGAKFASAVSGTSSSSNIIKETFTAALVDIETKSVEPMTVSVQPSSVQVVAEVVAPEEAAKPKGPSRCTTCNKRVGLTGFKCRCGSLFCGTHRYADVHDCSFNYHAAAQEAIAKANPVVKAEKLDKI	failed
MMADEEEEVKPILQKLQELVDQLYSFRDCYFETHSVEDAGRKQQDVRKEMEKTLQQMEEVVGSVQGKAQVLMLTGKALNVTPDYSPKAEELLSKAVKLEPELVEAWNQLGEVYWKKGDVAAAHTCFSGALTHCRNKVSLQNLSMVLRQLRTDTEDEHSHHVMDSVRQAKLAVQMDVHDGRSWYILGNSYLSLYFSTGQNPKISQQALSAYAQAEKVDRKASSNPDLHLNRATLHKYEESYGEALEGFSRAAALDPAWPEPRQREQQLLEFLDRLTSLLESKGKVKTKKLQSMLGSLRPAHLGPCSDGHYQSASGQKVTLELKPLSTLQPGVNSGAVILGKVVFSLTTEEKVPFTFGLVDSDGPCYAVMVYNIVQSWGVLIGDSVAIPEPNLRLHRIQHKGKDYSFSSVRVETPLLLVVNGKPQGSSSQAVATVASRPQCE	failed
MLINKTKRAEQNLNNLPFLALQAEQIEFLGSSAEFKTQIIELIRNAKKRIYVTALYWQKDEAGQEILDEIYRVKQENPHLDVKVLIDWHRAQRNLLGAEKSATNADWYCEQRQTYQLPDDPNMFFGVPINTREVFGVLHVKGFVFDDTVLYSGASINNVYLHQFEKYRYDRYQKITHAELADSMVNFINDYLLDFSAVYPLDVTNRPRTKEIRGNIRAYRKDLAQNGEYSLKSAVKLPNVLSVSPLFGLGASGNELNQVIEDLFLQVQKKLVICTPYFNFPRTLQHKIATLLENGKRVEIIVGDKVANDFYIPPEQPFKMAGALPYLYESNLRRFCEKFETQIESGQLVVRLWRDGDNTYHLKGVWVDDRYILLTGNNLNPRAWRLDAENGLLIYDPQQQLLAQVEKEQNQIRQHTKVLKHYTELEELNQYPEPVQKLLKKFARIKADKLVKMIL	not failed
MADNGQADRKERSNGVIVGTCLAFVAGMIGMAYAAVPLYDMFCRVTGYNGTTQRVEQASDLILDEKIKVTFDANVAAGLPWEFVPVQRDIDVRIGETVQIMYRAKNLASTPTTGQATFNVTPMAAGAYFNKVQCFCFTETTLEPGEEMEMPVVFFVDPEIVKPVETQGIKTLTLSYTFYPREPSKPVAQVKAKAENKL	not failed
MSSLFVVGIGPGSNDLMTPQASLAIERSEYVIGFSLYVSFIKEKFPNKIYISNGMQGEIERAKKAIELARSGHNVSIISSGDAGIYGIAGAVFEILSTLEDNMPEVSVVPGIS	not failed
MFADNTLTPKEAVRLCALGTIASQPMRYSELAGSVRHFTSRIMGPSLELMGISIELLRYEGLVEAVDDGQGMEDDAMLAISAAGRRELHSLLTARLRPGSDLSKLVVALKMRFLGLMEAEERAHQIDLLIEGVDSELARLADLRGSDGEGGSALAAWLDHDMALLESRLAWLEDFRARL	not failed
MPSVSVNKQGIVKVNSALNMRSGPGSNYGVIGTLRNNDEVEIIKEVDGWYEIKFNGKSGYVSSQYIKVLEHHHHHH	not failed
MGICVSFRREDSNSSPTVKIVTVNGDLREYNVPVIASQVLEAESAAAYSSSSSSRPSSYFICDSDSLYYDDFIPAIKSEEPLQADQIYFVLPISKRQSRLTASDMAALAVKASVAIQNSVKKESRRRKKVRISPVMMLTGSNDSVNGNGSETTVKKGRPFVSKTAPVKASSGINRSGSVRNLRRYTSKRAKLAVRSFRLKLSTIYEGSVV	failed
MNKRPASGTGHSVLRRSTRRQLLGAAAGATAALCGCLDDNGTDRTEPLDVSIGDVATYRYGPQRRGVADTTVPETAPDERWRLNTDWPVRAAPAVVGGVVYHCGNGLAAVDAVDGERLWRVDTDGPSETPPAVADGVVFAGTHRGRLHAINSDGTEHWTASGNGRIDAAPVVVDGRVYTASRATDGEVYAFEAGGREWTHEAVYRVNSPPAVADGLVFVGGWEGAVYGIDADSGERQWRTATDGPVLSSPAVADGRVFAGGNDGVVRALDVADGDERWQVETAATPTAPAVADGSLYVGDADGRLRRLDAATGEEGWQVTVASGIGVPPTVVEGTVVVGTTDGGVVAVDAADGTERWRVDTGERIRSQPVLAAGRVFVGSGRRLLALGK	failed
MWITQETWLKALPWNKKRYRSQIMEVICKHYTPLDIASQAIRTCWQSFEYSDDGGCKDKELIHRVGNIFRHSSTLEHLYYNFEIKGLSRGALQELSRHRIASLSVKSSRYTLRELKEVESFLPLNETNLERAKEFLVFVDNEKVNAMSVLALENLRILLSEHNIKNDLAKYAMPESYKTHLAYSINARSLQNFLTLRSSNKALKEMQDLAKALFDALPGEHQYLFEDCLKH	failed
MELGLYTFADVNPNPADGRGPEGARRLRELLEEIELADQVGLDVFGLGEHHRPDYVVSSPSTVLAAAAVKTKNIRLTSAVSVLSSDDPVRVFQQFSTVDLLSNGRAEIMAGRGSFIESYPLFGYDLEDYDVLFAEKLDLLLALREQEVVTWSGTKHPAINGRGVYPRPLQERLPVWIAVGGTPQSVARAGAMGLPVALAIIGGEYRRFAPLFDLYHEAARRAGQEKTKLRTSINVHGFIADTTDKAADQFYGPQAEVMNRIGRERGWGPTNRAHFDAARGPEGNLFLGEPELVAEKIIKAHGVFKNDRFLLQMAIGLMPHDQIMRGIELYGTKVAPLVRKELTGSADPVKATA	not failed
MTAIRFDHVDVIFGTHTKEALKLLDQGLGRAEILKRTGQVLGVEDACLDVNRGEICVLMGLSGSGKSSLLRCINGLNKVSRGKLLIEHEGSQVDIANCSPATLKAMRTKRIAMVFQKFALMPWLTVAENVGFGLEMQGRPAAERKKLIDEKLELVGLSQWRDKRPDSLSGGMQQRVGLARALAMDGDILLMDEPFSALDPLIRQQLQDELLVLQRQLHKTIVFVSHDLDEALKIGTRIAIMKDGRIIQHGKPEEIVLSPADDYVRTFVAHTNPLNVLCGQSLMRGLDQCIRQNDEICFDQGRDCWIGLSEGDVLKGARQGSNVIDLQRWRQGDPVEKLRREPTLVDVSIRMRDALQIRYQTGHKLVLQEQDRVVGVLGDSELYHALLGKN	failed
MASQVTAGSSGPVCFLTVGLRLPSARGQPVVSNFNQPRPPQRQRWVDSLLGVSLVALVVAAALPLLLPLVRLPGGSSARDRELAAAQATAFQTVLQRDPDNLSALRSLIGVYLQQQQLQAAIAPLQRLARLQPQQPAYRVLLAQTQAQLGDREAAAQTYRQILETAPTNLEALRGFTQLLLTQKQPTAAVDLLQKARQTDKITPADQVSIDLMLAQVYANQGQIDDAIALYDRSAQNNGRDFRPLLAKALLLKQQGDLQKATPIFQEAIAIAPAQYRDQIRQLSPASMPATPPTQPATKTPPTAPPPPPN	failed
AIASSAPAPGPAPASLTLWDEEDFQGRRCRLLSDCANVCERGGLPRVRSVKVENGVWVAFEYPDFQGQQFILEKGDYPRWSAWSGSSSHNSNQLLSFRPVLCANHNDSRVTLFEGDNFQGCKFDLVDDYPSLPSMGWASKDVGSLKVSSGAWVAYQYPGYRGYQYVLERDRHSGEFCTYGELGTQAHTGQLQSIRRVQH	failed
MIEKVYEFKRDAKTKVVEKLVNTEHVQINHIVLPRGEQMPKHYSNSYVHLIIIKGEMTLTLEDQEPHNYKEGNIVYVPFNVKMLIQNINSDILEFFVVKAPHPKKLNAPEDPIKCE	not failed
